In article PMC10975748 (2024):

Target: Kv1.2 (Homo sapiens, UniProt P16389)
Test: patch-clamp electrophysiology

Chain of Kv1.2 (P16389 whole entry): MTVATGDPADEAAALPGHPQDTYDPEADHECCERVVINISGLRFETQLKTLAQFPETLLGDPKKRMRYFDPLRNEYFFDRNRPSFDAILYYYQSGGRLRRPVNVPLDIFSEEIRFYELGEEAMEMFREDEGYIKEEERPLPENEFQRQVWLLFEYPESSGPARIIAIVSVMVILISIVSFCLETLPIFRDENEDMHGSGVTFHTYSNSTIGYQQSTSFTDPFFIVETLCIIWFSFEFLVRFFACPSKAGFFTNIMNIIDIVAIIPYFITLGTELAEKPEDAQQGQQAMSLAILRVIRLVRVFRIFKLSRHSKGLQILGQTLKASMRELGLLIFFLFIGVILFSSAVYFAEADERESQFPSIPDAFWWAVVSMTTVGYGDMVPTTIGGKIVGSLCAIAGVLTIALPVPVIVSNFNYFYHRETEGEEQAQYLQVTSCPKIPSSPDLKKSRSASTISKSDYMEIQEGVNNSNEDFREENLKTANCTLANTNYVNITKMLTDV

Binder: TFINHKCKSSSECLPACKAAIGRASGKCINSTCKCYY [Cm39]
- Kd: 65 nM
